# Source: patent publication US11407811B2, “Fusion protein, preparation method therefor and use thereof” (JIANGSU RONGTAI BIOTECH CO., LTD., priority 2017, dated 2022)
# B1: Protein II: IgG2-Fc linked to antiangiogenesis polypeptide EDSM-Y via a flexible linker; SEQ ID NO: 17 (protein)
# chain: ERKCCVECPPCPAPPVAGPSVFLFPPKPKDTLMISRTPEVTCVVVDVSHEDPEVQFNWYVDGVEVHNAKTKPREEQFNSTFRVVSVLTVVHQDWLNGKEYKCKVSNKGLPAPIEKTISKTKGQPREPQVYTLPPSREEMTKNQVSLTCLVKGFYPSDISVEWESNGQPENNYKTTPPMLDSDGSFFLYSKLTVDKSRWQQGNVFSCSVMHEALHNHYTQKSLSLSPGKGGGGSGGGGSGGGGSFQPVLHLVALNSPLSGGMRGIRGADFQCFQQARAVGLAGTFRAGGGGRGD
# What was measured:
# [1] = system: colon cancer cells HCT-116; assay: MTT assay, proliferation of colon cancer cell HCT-116; format: cell-based
# Experimental: The MTT assay was used to detect the inhibitory effect of the integrin blocker fusion protein obtained in Example 1 on the proliferation of various tumor cells, including melanoma cell B16F10, gastric cancer cell MGC-803, lung cancer cell A549, liver cancer cell Hep-G2, breast cancer cell MDA-MB-231, colon cancer cell HCT-116, human glioma U87, and cervical cancer cell Hela.
# The tumor cells were cultured in a 5% CO2 incubator at 37° C. to a density of 90% or more, and collected by trypsinization. The cells were resuspended in the culture liquid and counted under a microscope. The cell concentration was adjusted to 3.0×10^4 cells/mL. The cell suspension was inoculated into a 96-well plate at 100 μL per well and cultured overnight in a 5% CO2 incubator at 37° C. […] After the cells were fully adhered, each dilution was added to a 96-well plate at 100 μL per well, respectively. […] 20 μL of 5 mg/mL MTT was added to each well of a 96-well plate, and incubation was continued for 4 hours. The medium was aspirated and 100 μL of DMSO per well were added to dissolve. The absorbance was measured at 570 nm with a microplate reader with a reference wavelength of 630 nm, and the proliferation inhibition (PI) was calculated. The formula is as follows: […]
# where Ntest is the OD value of the test group and Ncontrol is the OD value of the blank control group.
# The test was repeated 5 times independently. The results obtained from the test were calculated as mean±SD, and statistical t-test was performed. P<0.05 was considered as a significant difference, and P<0.01 was considered as an extremely significant difference.
# [2] = system: peritoneal capillary permeability in mice; assay: Peritoneal capillary permeability in mice (HAc, Evans blue); format: in vivo; details: for Exudation rate (OD590) / PI (%): mice
# Experimental: The drug was administered once by injection (EDSM needed to be administered twice a day), and the blank model group was given an equal volume of physiological saline and fed normally. On the 5th day, a 5 g/L Evans blue physiological saline solution was injected into the tail vein at […], followed by intraperitoneal injection ([…]) of a HAc solution (6 mL/L) to induce inflammation. After 20 min, the mice were sacrificed by cervical dislocation. 5 mL of physiological saline was intraperitoneally injected, the abdomen was gently rubbed for 2 min, the abdominal cavity was cut, a peritoneal washing solution was collected and centrifuged at 4000 rpm for 10 min, 1 mL of supernatant was taken, and 3 mL of physiological saline was added to obtain 4 mL of dilution. The absorbance OD value of the dilution was measured by an ultraviolet spectrophotometer at a wavelength of 590 nm, and the amount of pigment exudation was expressed by the OD590 nm value, and the peritoneal capillary permeability in mice was examined.
# [3] = system: diabetic retinopathy rat model; assay: Neovascularization in diabetic retinopathy rat model (STZ); format: in vivo; details: 100 μg dose, intravitreal injection
# Experimental: The experimental diabetic rat model was established with streptozotocin STZ. STZ was dissolved in 0.1 mol/L citrate buffer at pH 4.5 to prepare a 2% solution. All experimental Wistar rats were fasted for 12 h before injection, and each rat was intraperitoneally injected with a 2% STZ solution at a dose of 65 mg/kg. After the injection, the rats were fed in single cages, and urine sugar and blood sugar were detected at the 48th hour. When urine sugar was +++ or above, and blood glucose was higher than 16.7 mmol/L, the model establishment requirement is reached. The diabetic retinopathy model was successfully established by detecting blood glucose, urine glucose, and urine volume and retinal VEGF immunohistochemistry.
# 15 rats were randomly divided into […], which were labeled as a control group, and fusion protein I, protein II, protein III, protein IV and protein V treatment groups. The administration was performed via intravitreal injection once every 5 days for 2 weeks, in which the control group was injected with physiological saline (0.1 mL), and the fusion protein I, protein II, protein III, protein IV, and protein V were all administered with 100 μg (0.1 mL). Observation was performed on week 4, week 8, and week 12.
molecule,measurement,setting,value
B1,A570 nm/A630 nm,[1]; dose 1 μg/mL,0.8310 ± 0.0394
same,PI (%),[1]; dose 1 μg/mL,5.59%
same,A570 nm/A630 nm,[1]; dose 2 μg/mL,0.7925 ± 0.0415
same,PI (%),[1]; dose 2 μg/mL,9.96%
same,A570 nm/A630 nm,[1]; dose 4 μg/mL,0.7555 ± 0.0283
same,PI (%),[1]; dose 4 μg/mL,14.17%
same,A570 nm/A630 nm,[1]; dose 8 μg/mL,0.7023 ± 0.0347
same,PI (%),[1]; dose 8 μg/mL,20.21%
same,A570 nm/A630 nm,[1]; dose 16 μg/mL,0.6556 ± 0.0292
same,PI (%),[1]; dose 16 μg/mL,25.52%
same,A570 nm/A630 nm,[1]; dose 32 μg/mL,0.6113 ± 0.0279
same,PI (%),[1]; dose 32 μg/mL,30.55%
same,A570 nm/A630 nm,[1]; dose 64 μg/mL,0.5498 ± 0.0374
same,PI (%),[1]; dose 64 μg/mL,37.54%
same,A570 nm/A630 nm,[1]; dose 128 μg/mL,0.4898 ± 0.0289
same,PI (%),[1]; dose 128 μg/mL,44.35%
same,A570 nm/A630 nm,[1]; dose 256 μg/mL,0.4497 ± 0.0316
same,PI (%),[1]; dose 256 μg/mL,48.91%
same,inhibition of the increase of peritoneal capillary permeability induced by glacial acetic acid,[2]; in words,could significantly inhibit the increase of peritoneal capillary permeability
same,Exudation rate (OD590),[2]; dose 8 mg/kg,0.51 ± 0.06
same,PI (%),[2]; dose 8 mg/kg,26.09%
same,Exudation rate (OD590),[2]; dose 32 mg/kg,0.34 ± 0.03
same,PI (%),[2]; dose 32 mg/kg,50.72%
same,Exudation rate (OD590),[2]; dose 128 mg/kg,0.32 ± 0.07
same,PI (%),[2]; dose 128 mg/kg,53.62%
same,therapeutic effect on diabetic retinopathy,[3],a certain therapeutic effect on diabetic retinopathy
